According to patent publication US20240115500A1, “POLYMERIC MICELLE COMPLEXES OF MRNA OR ZWITTERIONIC AGENTS, AND FORMULATIONS AND USES THEREOF” (Aravasc Inc., priority 2020, published 2024):

Assay: Agarose gel electrophoresis of protein + PBC formulations at defined w/w ratios (Example 2)
[1] = polymer:protein ratio 15:1, FIG. 2A-2D

Protocol: Unless otherwise indicated, the complexation was conducted at room temperature by incubating the PBC with the protein for 10-20 minutes on a microcentrifuge. A formulation of PBC alone was prepared along with the protein and PBC complexes.
Formulation were prepared as described above and analyzed by agarose gel electrophoresis. A 2% agarose gel was prepared and 20 μl of each formulation was loaded at the center of the gel. The gel was run for 30 minutes at 75V.

In the case of Semaglutide, the “complexation with the polymer (agarose gel)” value (“complexation with the polymer” for short) [1] is reported as “significantly complex” and the “complexation with the polymer” value (polymer:protein ratio 30:1, FIG. 2A/2B) is reported as “significantly complex”.

With interferon alpha the “complexation with the polymer” value (polymer:protein ratio 18:1, FIG. 2D) was “significantly complex”.

B1: interferon gamma: interferon protein tested for complexation with PBC (protein, UniProt P01579 24-161, looked up)
Interferon gamma: QDPYVKEAENLKKYFNAGHSDVADNGTLFLGILKNWKEESDRKIMQSQIVSFYFKLFKNFKDDQSIQKSVETIKEDMNVKFFNSNKKKRDDFEKLTNYSVTDLNVQRKAIHELIQVMAELSPAAKTGKRKRSQMLFRG
With B1 the “complexation with the polymer” value [1] was “significantly complex”.
